The labels stand for the following.
B1: ZY0EP0-C07 human IgG1 (antibody, V domains shown)
VH: QVQLVESGGVLVKPGGSLRLSCAASGFTLSDYYMSWIRQAPGMGLEWVSYISSSGSTIYYTDSVKGRFTISRDSAKNSLYLQMNSLRAEDTAVYYCARDGVGFDYWGQGTLVTVSS
VL: EIVLTQSPGTLSLFPGERATLSCRASQSVSSSYLAWYQQKPGQSPRLLIYAASSRATGIPDRFSGSGSGTDFTLTISRLEPEDFAVYYCQQYGSSPLYTFGQGTKLEIK
notes: also called ZY0EPO-C07
B2: ZY0EO5-E07 human IgG1 (antibody, V domains shown)
VH: QVQLQESGPGLVKPSQTLSLTCTVSGGSISSGGYYWSWIRQHPGKGLEWIGNIYYSGSTYYNPSLKSRVTISVDTSKNQFSLKLSSVTAADTAVYYCAREKALASVIPSGYENYYVVDVWGQGTTVTVSS
VL: DIQLTQSPSFLSASVGGRVTITCWASQGIAGYLAWYQQKPGKAPKLLIYAASTLQSGVPSRFSGSGSGTEFTLTISSLQPEDFATYYCQHLNSYPLTFGGGTKVEIK
notes: also called ZY0E05-E07; E05-E07
B3: ZY0EOB-F05 human IgG1 (antibody, V domains shown)
VH: B2 VH with G26D, S85N, R99T, S105T, I107T, V116T
VL: B2 VL with G17D, A30S, G31S
B4: ZY0EPQ-E02 human IgG1 (antibody, V domains shown)
VH: QVQLQQWGAGLLKPSETLSLTCAVYGGSFSGYYWNWIRQPPGKGLEWIGEINHSGSTNYNPSLKSRVTILVDTSKNQFSLKLSSVTAADTAVYYCARNLYNWNLDSWGQGTLVTVSS
VL: DIQMTQSPSSLSASVGDRVTITCRASQGIRNDLGWYQQKPGRAPKRLIYVASSLQSGVPSRFSGSGSGTEFTLTISSLQPEDFATYYCLQHNSYPRTFGQGTKVEIK
B5: ZY0EQD-E02 human IgG1 (antibody, V domains shown)
VH: B4 VH with N58S, L70S, N98V, L104V
VL: B4 VL with G28D, L33V, R42K, V50A, S53R

Numbering of substitutions follows the chain as printed.

By EC50 is commonly meant the midpoint of the concentration-response curve. Lower therefore signals higher potency in that assay. Broadly, the Kd is the concentration at which binding is half-saturated. In general, koff refers to the first-order rate constant of dissociation. In general, kon refers to the rate constant with which the complex forms. Low readings indicate slower complex formation, high ones faster complex formation.

The first experiment concerns the target T1, Human B7-H4-Fc (Human B7H4 ECD, Fc_6His) (human).
T1 construct: also called FcHis6 tagged human B7-H4
T1 sequence (Q7Z7D3 whole entry, looked up): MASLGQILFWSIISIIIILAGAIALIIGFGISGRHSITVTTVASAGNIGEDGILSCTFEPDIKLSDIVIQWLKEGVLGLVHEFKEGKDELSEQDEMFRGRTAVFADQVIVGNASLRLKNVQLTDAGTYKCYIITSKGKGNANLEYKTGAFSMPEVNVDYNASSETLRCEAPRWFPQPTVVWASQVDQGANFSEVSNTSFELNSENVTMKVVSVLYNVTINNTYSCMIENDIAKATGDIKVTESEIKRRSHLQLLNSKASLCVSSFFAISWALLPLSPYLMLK
As to the kind of experiment: HTRF binding, human IgG1. A general note: Time-resolved FRET reads energy transfer from a long-lived donor to a nearby acceptor.
Take B1: a half-maximal effect (EC50) was put at 0.3 nM and the Max was 1220.

The molecule B2 registered an EC50 of 0.19 nM and a Max of 1710.

B3: a half-maximal response (EC50) required 0.15 nM and the Max was found to be 1820.

Molecule B4 gave an EC50 of 0.38 nM and a Max of 1130.

In the case of B5, a half-maximal effect (EC50) was put at 0.35 nM and the Max came out at 1240.

A further experiment deals with T2, Murine B7-H4-Fc (Mouse B7H4 ECD, Fc_6His) (mouse, UniProt Q7TSP5 25-257).
T2 construct: extracellular domain; also called mouse B7-H4-Fc; FcHis6 tagged murine B7-H4
T2 sequence (Q7TSP5 whole entry, looked up): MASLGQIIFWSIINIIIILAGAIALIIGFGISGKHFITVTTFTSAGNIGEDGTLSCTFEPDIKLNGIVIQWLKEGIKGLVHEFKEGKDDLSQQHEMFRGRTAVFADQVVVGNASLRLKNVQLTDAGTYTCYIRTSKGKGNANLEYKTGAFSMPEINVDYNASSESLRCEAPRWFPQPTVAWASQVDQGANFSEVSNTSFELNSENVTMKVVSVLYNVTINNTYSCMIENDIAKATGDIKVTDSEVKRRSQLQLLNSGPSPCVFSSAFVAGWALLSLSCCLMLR
Briefly: HTRF binding, human IgG1.
B1 had an EC50 of 0.18 nM and a Max of 1320.

The molecule B2 yielded an EC50 of 0.21 nM and a Max of 1300.

B3: the EC50 came out at 0.19 nM and the Max amounted to 1320.

B4: the 50% effective concentration (EC50) came out at 1.49 nM and the Max stood at 279.

As to B5, the midpoint of the response, the EC50, lay at 1.4 nM and the Max was found to be 167.

The target of the next experiment is T3, Human B7H4 ECD (SV), splice variant, 10His_FLAG (human).
T3 construct: also called B7-H4-SV
Briefly: Octet BLI, hIgG1 on Protein G (n = 1). Background: BLI is a label-free optical method that tracks binding on a fibre tip over time.
On to B2, for which binding was characterised by a dissociation constant (Kd) of 182 nM, the off-rate constant (koff) came out at 0.000528 s⁻¹ and the kon was determined as 2910 M⁻¹ s⁻¹.

B3 gave a Kd of 127 nM, a koff of 0.000598 s⁻¹ and an on-rate (kon) of 4710 M⁻¹ s⁻¹.

In turn, B4 displayed a Kd of 1030 nM, a koff of 0.00252 s⁻¹ and a kon of 2460 M⁻¹ s⁻¹.

In turn, B5 had a Kd of 834 nM, a koff of 0.00349 s⁻¹ and a kon of 4190 M⁻¹ s⁻¹.

For the next experiment, the target named is T4, Human B7-H4 ECD-Flag-His10 (monomeric) (human, UniProt Q7Z7D3 25-259).
T4 construct: Minimally biotinylated for KinExA; also called hB7H4-ECD-Flag-His10; B7-H4-FLAG
T4 sequence: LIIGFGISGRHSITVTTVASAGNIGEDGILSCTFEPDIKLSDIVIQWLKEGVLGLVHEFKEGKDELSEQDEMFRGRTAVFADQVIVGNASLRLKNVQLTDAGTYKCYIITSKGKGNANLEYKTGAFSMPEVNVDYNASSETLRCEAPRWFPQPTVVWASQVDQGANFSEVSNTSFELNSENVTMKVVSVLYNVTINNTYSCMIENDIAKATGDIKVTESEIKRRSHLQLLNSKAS
Briefly: Octet BLI, hIgG1 on Protein G (n = 1).
B1 returned a Kd of 7 nM, a koff of 0.000363 s⁻¹ and a kon of 48800 M⁻¹ s⁻¹.

As to B2, the Kd is 14.6 nM, the koff turned out to be 0.000318 s⁻¹ and the kon turned out to be 21700 M⁻¹ s⁻¹.

Take B3: the Kd came out at 11.7 nM, the koff worked out at 0.000362 s⁻¹ and the kon was 31000 M⁻¹ s⁻¹.

B4 registered a Kd of 24 nM, a koff of 0.00208 s⁻¹ and an association rate constant (kon) of 85900 M⁻¹ s⁻¹.

B5: the Kd was 14.9 nM, the koff worked out at 0.00321 s⁻¹ and the kon was determined as 216000 M⁻¹ s⁻¹.

The target in another experiment is T5, Murine B7-H4 ECD-Flag-His10 (monomeric) (mouse, UniProt Q7TSP5 25-257).
T5 construct: extracellular domain; also called FlagHis10 murine B7-H4
T5 sequence (looked up): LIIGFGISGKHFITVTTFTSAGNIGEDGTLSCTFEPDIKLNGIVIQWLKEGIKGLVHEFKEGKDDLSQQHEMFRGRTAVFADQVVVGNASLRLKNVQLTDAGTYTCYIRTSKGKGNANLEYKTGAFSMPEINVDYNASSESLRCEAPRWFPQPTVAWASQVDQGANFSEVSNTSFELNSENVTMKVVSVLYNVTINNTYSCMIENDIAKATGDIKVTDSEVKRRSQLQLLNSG
As to the kind of experiment: Octet BLI, hIgG1 on Protein G (n = 1).
B1 yielded a Kd of 9 nM, a koff of 0.000551 s⁻¹ and a kon of 60200 M⁻¹ s⁻¹.

The molecule B2 showed a Kd of 23.2 nM, a koff of 0.000415 s⁻¹ and a kon of 17900 M⁻¹ s⁻¹.

Take B3: binding was characterised by a dissociation constant (Kd) of 19.8 nM, the koff was 0.000493 s⁻¹ and the kon amounted to 24900 M⁻¹ s⁻¹.

Consider B4, for which the affinity, expressed as Kd, was 498 nM; the koff was determined as 0.0498 s⁻¹; the kon came out at 100000 M⁻¹ s⁻¹.

Take B5: the Kd was 625 nM, the koff is 0.213 s⁻¹ and the kon amounted to 341000 M⁻¹ s⁻¹.

For the next experiment, the target named is T6, Cyno B7-H4-Fc (Cyno B7H4 ECD, FcTM_6His) (cynomolgus monkey).
T6 construct: extracellular domain; also called cynomolgus B7-H4-Fc
Briefly: HTRF binding, human IgG1.
As for B1, the EC50 came to 0.33 nM and the Max was 946.

With B2, the EC50 was 0.18 nM and the Max was found to be 1360.

Turning to B3, the EC50 worked out at 0.14 nM and the Max turned out to be 1480.

As for B4, a half-maximal effect (EC50) was put at 0.33 nM and the Max stood at 987.

In turn, B5 yielded an EC50 of 0.28 nM and a Max of 1130.

The values above are taken from patent US20240239894A1 (AstraZeneca / MedImmune, published 2024).
